What all share (format): biochemical, Z. mays
Data set [1] relates to 4-hydroxyphenylpyruvate dioxygenase (HPPD). Put plainly: ON rate ratio: HPPD reaction rate with vs without inhibitor in the 70 to 90 second interval. The settings on record: Table 7; tembotrione; combinatorial variants. In outline:
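Time courses of HPPD reactions, 60 or 120 nM enzyme with 100 μM HPP substrate, run with and without 4 μM inhibitor (e.g. mesotrione, tembotrione). Value is the rate with inhibitor over rate without, taken over 70–90 s; higher ratio reflects slower kON.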

The test system is the same in data set [2]. As to the kind of experiment: Estimate of kcat from initial rate at saturating hydroxyphenylpyruvate without inhibitor (ON rate ratio assay). In outline:
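Reactions used 60 or 120 nM HPPD and saturating 100 μM hydroxyphenylpyruvate without inhibitor. kcat was estimated from the initial rate at the known enzyme concentration.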

The test system is the same in data set [3]. Put plainly: Insensitivity parameter (ON × OFF) and trait fitness (ON × OFF × kcat/KM or × kcat). Also noted: key to ON × OFF / Insensitivity, mesotrione, ON × OFF / Insensitivity, tembotrione, ON × OFF / Insensitivity, topramezone, ON × OFF / Insensitivity, sulcotrione, ON × OFF / Insensitivity, isoxaflutole (DKN), ON × OFF: insensitivity = ON rate ratio × OFF rate ratio (surrogate for KD). A digest of the protocol:
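Calculated, not measured directly: ON rate ratio × OFF rate ratio gives an insensitivity parameter serving as a KD surrogate.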

Data set [4] shares this test system. As to the kind of experiment: OFF rate ratio: release of inhibitor from pre-formed enzyme-inhibitor complex. The settings on record: Table 7; tembotrione; combinatorial variants. A digest of the protocol: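 HPPD (7.2 μM) pre-incubated 1 h at RT with inhibitor (8 μM), then diluted into 25 mM Hepes pH 7, 2 mM ascorbate, 10 μM FeSO4, 100 μM HPP, 50 nM HGD; A320 followed 12 min. Ratio = steady-state rate with inhibitor over initial rate of inhibitor-free enzyme.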

Setting [5] is: Table 7, combinatorial variants.
Where [6] appears, read: Table 7, tembotrione, combinatorial variants.

Substitutions are numbered along the chain they refer to.

Broadly, the kcat is the maximal rate divided by the concentration of active sites.

B1: P056028-D-07 (protein)
chain: MGPTPTATAAGAAVAAASAAEQAAFRLVGHRNFVRFNPRSDRFQTLAFHHVELWCADAASAAGRFSFALGVPLAARSDLSTGNSAHASLLLRSGSLSLLFTAPYAHGADAATAALPSFSAAAARRFAADHGLAVRAVALRVADAEDAFRASVAAGARPAFGPVDLGRGFRLAEVELYGDVVLRYVSYPDGAAGEPFLPGFEGVASQGAADYGLSRFDHIVGNVPELAPAAAYMAGFTGFHEFAEFTTEDVGTTESGLNSMALANNSENVLLPLNEPVHGTKRRSQIQTFLDHHGGPGVQHIALASDDVLRTLREMRARSAMGGFEFLPPPLSDYYDGVRKCAGDVLTEAQINECQELGVMVDRDDEGVLLQIFTKPVGDRPTFFIEIIQRIGCMEKDEKGQEYQKGGCGGFGKGNFGQLFKSIEDYEKSLEAKQAAAAATAQGS
modifications: Zea mays variant form created by artificial means.
Turning to B1, in data set [1], the ON rate ratio came to 0.775. The kcat in data set [2] (Megatable 3, shuffled variants) is 0.152 s⁻¹; in data set [2] (setting [5]) it was 0.152 s⁻¹. Besides, the “ON × OFF” value in data set [3] (Megatable 3, shuffled variants) turned out to be 0.286; in data set [3] (setting [6]), 0.286. Further, the “ON × OFF × kcat” value in data set [3] (Megatable 3, shuffled variants) is listed as 2.60; in data set [3] (setting [6]), 2.60. The OFF rate ratio in data set [4] was 0.370.

B2: P056028-E-10 (protein)
chain: B1 chain with L182M, K340R, I385L
modifications: Zea mays variant form created by artificial means.
Consider B2, for which the ON rate ratio in data set [1] was determined as 0.702. The kcat in data set [2] (Megatable 3, shuffled variants) was 0.192 s⁻¹; in data set [2] (setting [5]), 0.192 s⁻¹. In addition, the “ON × OFF” value in data set [3] (Megatable 3, shuffled variants) came to 0.238; in data set [3] (setting [6]), 0.238. The “ON × OFF × kcat” value is on record as 2.73 in data set [3] (Megatable 3, shuffled variants) and 2.73 in data set [3] (setting [6]). Further, the OFF rate ratio in data set [4] amounted to 0.339.

B3: P056028-D-09 (protein)
chain: B1 chain with A191G, Q206P, K340R, E356K, I385L
modifications: Zea mays variant form created by artificial means.
Consider B3, for which the ON rate ratio in data set [1] is listed as 0.652. Besides, the kcat in data set [2] (Megatable 3, shuffled variants) was 0.217 s⁻¹; in data set [2] (setting [5]), 0.217 s⁻¹. Besides, the “ON × OFF” value in data set [3] (Megatable 3, shuffled variants) is recorded as 0.242; in data set [3] (setting [6]), 0.242. For the same molecule, the “ON × OFF × kcat” value was 3.16 in data set [3] (Megatable 3, shuffled variants) and 3.16 in data set [3] (setting [6]). In addition, the OFF rate ratio in data set [4] is given as 0.371.

B4: P056028-F-03 (protein)
chain: B1 chain with A191G, Q206P, K340R, M394T, G417S
modifications: Zea mays variant form created by artificial means.
As for B4, the ON rate ratio in data set [1] stood at 0.738. For the same molecule, the kcat is 0.217 s⁻¹ in data set [2] (Megatable 3, shuffled variants) and 0.217 s⁻¹ in data set [2] (setting [5]). Also, the “ON × OFF” value amounted to 0.363 in data set [3] (Megatable 3, shuffled variants) and 0.363 in data set [3] (setting [6]). In addition, the “ON × OFF × kcat” value in data set [3] (Megatable 3, shuffled variants) came to 4.73; in data set [3] (setting [6]), 4.73. Besides, in data set [4], the OFF rate ratio was determined as 0.491.

B5: P056028-E-05 (protein)
chain: B1 chain with A191G, Q206S, K340R, I385L, G417Q
modifications: Zea mays variant form created by artificial means.
In the case of B5, the ON rate ratio in data set [1] is reported as 0.704. Moreover, the kcat in data set [2] (Megatable 3, shuffled variants) was 0.253 s⁻¹; in data set [2] (setting [5]), 0.253 s⁻¹. Moreover, the “ON × OFF” value in data set [3] (Megatable 3, shuffled variants) is listed as 0.229; in data set [3] (setting [6]), 0.229. Further, the “ON × OFF × kcat” value was found to be 3.48 in data set [3] (Megatable 3, shuffled variants) and 3.48 in data set [3] (setting [6]). Also, the OFF rate ratio in data set [4] amounted to 0.325.

B6: P056028-E-09 (protein)
chain: B1 chain with A191G, I385L
modifications: Zea mays variant form created by artificial means.
With B6, the ON rate ratio in data set [1] is given as 0.676. Also, the kcat is 0.248 s⁻¹ in data set [2] (Megatable 3, shuffled variants) and 0.248 s⁻¹ in data set [2] (setting [5]). Moreover, the “ON × OFF” value in data set [3] (Megatable 3, shuffled variants) was determined as 0.208; in data set [3] (setting [6]), 0.208. The “ON × OFF × kcat” value is on record as 3.10 in data set [3] (Megatable 3, shuffled variants) and 3.10 in data set [3] (setting [6]). The OFF rate ratio in data set [4] is given as 0.308.

B7: P056028-F-10 (protein)
chain: B1 chain with A191G, Q206P, S214N, I385L
modifications: Zea mays variant form created by artificial means.
Regarding B7, the ON rate ratio in data set [1] is on record as 0.726. Besides, the kcat in data set [2] (Megatable 3, shuffled variants) was 0.228 s⁻¹; in data set [2] (setting [5]) it was 0.228 s⁻¹. The “ON × OFF” value in data set [3] (Megatable 3, shuffled variants) is recorded as 0.211; in data set [3] (setting [6]) it was 0.211. Besides, the “ON × OFF × kcat” value was 2.89 in data set [3] (Megatable 3, shuffled variants) and 2.89 in data set [3] (setting [6]). Also, the OFF rate ratio in data set [4] was found to be 0.291.

B8: P056028-E-06 (protein)
chain: B1 chain with Q206P, E244K, I385L, M394K
modifications: Zea mays variant form created by artificial means.
Turning to B8, the ON rate ratio in data set [1] is on record as 0.346. The kcat in data set [2] (Megatable 3, shuffled variants) is 0.47 s⁻¹; in data set [2] (setting [5]) it was 0.47 s⁻¹. Further, the “ON × OFF” value in data set [3] (Megatable 3, shuffled variants) amounted to 0.064; in data set [3] (setting [6]) it was 0.064. In addition, the “ON × OFF × kcat” value in data set [3] (Megatable 3, shuffled variants) is recorded as 1.76; in data set [3] (setting [6]) it was 1.76. For the same molecule, in data set [4], the OFF rate ratio was determined as 0.186.

B9: P056028-E-07 (protein)
chain: B1 chain with Q206P, Y211L, K340R, I385L, G417Q, Q434R
modifications: Zea mays variant form created by artificial means.
As to B9, the ON rate ratio in data set [1] is 0.585. For the same molecule, the kcat in data set [2] (Megatable 3, shuffled variants) is 0.343 s⁻¹; in data set [2] (setting [5]), 0.343 s⁻¹. For the same molecule, the “ON × OFF” value is listed as 0.153 in data set [3] (Megatable 3, shuffled variants) and 0.153 in data set [3] (setting [6]). Further, the “ON × OFF × kcat” value came to 3.08 in data set [3] (Megatable 3, shuffled variants) and 3.08 in data set [3] (setting [6]). For the same molecule, the OFF rate ratio in data set [4] is reported as 0.262.

B10: P056028-E-03 (protein)
chain: B1 chain with T45A, Q206P, K340R, I385L, G417S
modifications: Zea mays variant form created by artificial means.
Take B10: the ON rate ratio in data set [1] was found to be 0.735. For the same molecule, the turnover number (kcat) in data set [2] (Megatable 3, shuffled variants) was 0.282 s⁻¹; in data set [2] (setting [5]), 0.282 s⁻¹. Besides, the “ON × OFF” value was found to be 0.303 in data set [3] (Megatable 3, shuffled variants) and 0.303 in data set [3] (setting [6]). The “ON × OFF × kcat” value in data set [3] (Megatable 3, shuffled variants) is listed as 5.10; in data set [3] (setting [6]) it was 5.10. For the same molecule, the OFF rate ratio in data set [4] is given as 0.412.

B11: P056028-E-08 (protein)
chain: B1 chain with Q206P, K340R, E356R, I385L
modifications: Zea mays variant form created by artificial means.
In the case of B11, the ON rate ratio in data set [1] amounted to 0.685. Further, the kcat in data set [2] (Megatable 3, shuffled variants) was 0.21 s⁻¹; in data set [2] (setting [5]), 0.21 s⁻¹. Further, the “ON × OFF” value turned out to be 0.281 in data set [3] (Megatable 3, shuffled variants) and 0.281 in data set [3] (setting [6]). In addition, the “ON × OFF × kcat” value in data set [3] (Megatable 3, shuffled variants) is recorded as 3.55; in data set [3] (setting [6]), 3.55. For the same molecule, the OFF rate ratio in data set [4] amounted to 0.410.

B12: P056028-E-11 (protein)
chain: B1 chain with A191G, Q206S, K340R, I385L
modifications: Zea mays variant form created by artificial means.
Take B12: in data set [1], the ON rate ratio was 0.721. In addition, the kcat in data set [2] (Megatable 3, shuffled variants) is 0.282 s⁻¹; in data set [2] (setting [5]), 0.282 s⁻¹. Besides, the “ON × OFF” value came to 0.219 in data set [3] (Megatable 3, shuffled variants) and 0.219 in data set [3] (setting [6]). Moreover, the “ON × OFF × kcat” value is given as 3.70 in data set [3] (Megatable 3, shuffled variants) and 3.70 in data set [3] (setting [6]). In addition, the OFF rate ratio in data set [4] worked out at 0.304.

B13: P056028-F-11 (protein)
chain: B1 chain with A191G, Q206P, N265D, K340R, I385L
modifications: Zea mays variant form created by artificial means.
Turning to B13, the ON rate ratio in data set [1] is reported as 0.706. The kcat in data set [2] (Megatable 3, shuffled variants) is 0.368 s⁻¹; in data set [2] (setting [5]), 0.368 s⁻¹. Besides, the “ON × OFF” value in data set [3] (Megatable 3, shuffled variants) worked out at 0.228; in data set [3] (setting [6]), 0.228. For the same molecule, the “ON × OFF × kcat” value in data set [3] (Megatable 3, shuffled variants) is listed as 5.04; in data set [3] (setting [6]), 5.04. Moreover, the OFF rate ratio in data set [4] is recorded as 0.322.
